The text below walks through data of PMC5068707 (PLoS Pathogens, 2016).

The labels stand for the following.
B2: Ebola virus VP30 C-terminal domain (amino acids 139–288) (domain or fragment)
chain: GPKITLLTLIKTAEHWARQDIRTIEDSKLRALLTLCAVMTRKFSKSQLSLLCETHLRREGLGQDQAEPVLEVYQRLHSDKGGSFEAALWQQWDRQSLIMFITAFLNIALQLPCESSAVVVSGLRTLVPQSDNEEASTNPGTCSWSDEGTP

For assay [1], the target named is MARV NP 552-579-VP30 146–281 fusion protein (Marburg virus (MARV)) (UniProt P27588). The assay can be described thus: crystal structure.
Assay [2] has as its target B2. In words: BLI. The following applies: both partners purified.
For the next assay, the target named is T1, MARV VP30 CTD (146–281) (Marburg virus (MARV), UniProt P35258 146-281).
T1 sequence: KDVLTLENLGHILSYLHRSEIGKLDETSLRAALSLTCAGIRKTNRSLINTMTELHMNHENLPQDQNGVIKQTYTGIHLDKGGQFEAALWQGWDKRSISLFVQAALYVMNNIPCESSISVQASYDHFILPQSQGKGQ
In words: ITC. The note with it: both partners purified.

Assay [3] has as its target T2, EBOV NP C-terminal portion (360–739) (Ebola virus (EBOV), UniProt P18272 360-739).
T2 sequence: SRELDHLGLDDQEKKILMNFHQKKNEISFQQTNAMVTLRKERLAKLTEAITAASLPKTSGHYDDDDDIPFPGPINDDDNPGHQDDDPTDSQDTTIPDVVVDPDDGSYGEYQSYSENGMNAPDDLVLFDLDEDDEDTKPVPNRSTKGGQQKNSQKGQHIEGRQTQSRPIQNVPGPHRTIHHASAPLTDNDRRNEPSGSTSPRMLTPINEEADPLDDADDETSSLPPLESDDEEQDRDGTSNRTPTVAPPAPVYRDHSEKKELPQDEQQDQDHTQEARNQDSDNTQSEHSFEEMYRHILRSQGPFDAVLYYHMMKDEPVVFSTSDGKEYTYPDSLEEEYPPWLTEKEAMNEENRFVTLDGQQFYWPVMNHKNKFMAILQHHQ
The assay can be described thus: ITC. The note with it: both partners purified.

In assay [4] the target is B2. The assay can be described thus: crystal structure. The note with it: both partners purified.

The term stoichiometry N denotes a count of units in the complex or per binding partner. What is called Kd is the free concentration of one partner at which half of the binding sites on the other are occupied at equilibrium, for simple one-to-one binding. Higher therefore signals weaker binding.

Where no end group is shown, it is not given here.

Turning to “MARV NP 552-579-VP30 146–281 fusion protein (from UniProt P27588;P35258)”, in assay [1], the stoichiometry N amounted to 2.

B1: biotinylated EBOV NP peptide 560–617 (peptide)
chain: RMLTPINEEADPLDDADDETSSLPPLESDDEEQDRDGTSNRTPTVAPPAPVYRDHSEK
modifications: not fully specified (N-terminus); also: biotinylated (position not given here)
As for B1, in assay [2], the binding result was “binds”.

EQGVDLPPPPLYAQEKRQ [MARV NP peptide (552–569) fused to T4 lysozyme]: the Kd with MARV VP30 CTD (146–281) was 14 µM. Consider B2, for which the Kd in assay [3] was 21.3 µM. As for SSLPPLESDDEEQDRDGTSNRTPTVAPPAPVYRDHSEK (not fully specified (N-terminus); also: biotinylated (position not given here)) [biotinylated EBOV NP peptide 580–617], the binding result in assay [2] is on record as “binds”. As to RTPTVAPPAPVYRDHSEKKELPQDEQQD [EBOV NP peptide (600–627), as the N-terminal part of the NP-VP30 fusion], the binding result in assay [4] is “binds”.
